Laboratory results from paper doi:10.1101/2022.01.05.475064.
Positions count from the first letter of the chain named.

T1: NtHY5 (6xHis-HY5) (Nicotiana tabacum, UniProt A0A1S3YJY6 1-158)
T1 sequence: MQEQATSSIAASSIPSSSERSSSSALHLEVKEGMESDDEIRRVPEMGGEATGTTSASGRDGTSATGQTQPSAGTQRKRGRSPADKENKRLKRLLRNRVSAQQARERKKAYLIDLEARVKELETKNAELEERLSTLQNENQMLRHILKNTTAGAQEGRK

B1: NtPMT Mut P1 (G-mut I) (dsDNA)
DNA 1: CAGTCTAACCATGATTAATGTAATGATTTT
DNA 2: AAAATCATTACATTAATCATGGTTAGACTG
B2: NtQPT P1 (G-BOX I) (dsDNA)
DNA 1: CATAAATAAAACGTGTTCAGCTACTAAAAC
DNA 2: GTTTTAGTAGCTGAACACGTTTTATTTATG
B3: NtPMT P2 (G-BOX II) (dsDNA)
DNA 1: TACTGTTTCCGCAACGTGCTCTTCATCAGG
DNA 2: CCTGATGAAGAGCACGTTGCGGAAACAGTA
B4: NtODC Mut P1 (dsDNA)
DNA 1: ATCTGATCACCTAATATCACCAAGAAAATA
DNA 2: TATTTTCTTGGTGATATTAGGTGATCAGAT
B5: NtQPT Mut P1 (dsDNA)
DNA 1: CATAAATAAAATTCATTCAGCTACTAAAAC
DNA 2: GTTTTAGTAGCTGAATGAATTTTATTTATG
B6: NtPMT Mut P2 (G-mut II) (dsDNA)
DNA 1: B3 DNA 1 with C15T, G16C, G18T
DNA 2: B3 DNA 2 with C13A, C15G, G16A
B7: NtMYB12 P2 (G-BOX II) (dsDNA)
DNA 1: AGTCAACTTTGCAACGTAAAAGTCCACACA
DNA 2: TGTGTGGACTTTTACGTTGCAAAGTTGACT
B8: NtODC P1 (G-BOX I) (dsDNA)
DNA 1: B4 DNA 1 with T15C, A16G, C18G
DNA 2: B4 DNA 2 with G13C, T15C, A16G
B9: NtMYB12 P1 (G-BOX I) (dsDNA)
DNA 1: AACTTGAAATAATACGTTAAAAGATAAAA
DNA 2: TTTTATCTTTTAACGTATTATTTCAAGT
B10: NtPMT P1 (G-BOX I) (dsDNA)
DNA 1: CAGTCTAACCATGCACGTTGTAATGATTTT
DNA 2: AAAATCATTACAACGTGCATGGTTAGACTG

Target: T1, NtHY5 (6xHis-HY5)
Experiment: EMSA

Row | Binder | binding result
1 | B1 | no binding
2 | B2 | binds
3 | B3 | binds
4 | B4 | no binding
5 | B5 | no binding
6 | B6 | no binding
7 | B7 | binds
8 | B8 | binds
9 | B9 | binds
10 | B10 | binds
